Data published in EP2857035B1.

Experiments:
HLA-B7 (human) = assay: assembly assay (HLA-B7 stabilisation)
HLA-B35 (human) = assay: assembly assay, T2-B35 cell lysate, W6/32 IP, IEF gel

## RPPIFIRRL (modifications not checked) [C7]
HLA-B7 (human)
  C50: 0.5 µM

## QPRAPIRPI (modifications not checked) [C6]
HLA-B7 (human)
  C50: 0.1 µM

## YPLHEQHQM (modifications not checked) [C24, EBNA3A458-466]
HLA-B35 (human)
  C50: 0.8 µM
